According to patent publication US20260097113A1 (Pfizer, published 2026):

Tests used:
[1] = molecular target: RSV A + RSV B bivalent composition (RSV subtype A; RSV subtype B); assay: AM14 Fab titration by SEC; High-Slow 1 cycle; T0
[2] = molecular target: RSV A + RSV B bivalent composition (RSV subtype A; RSV subtype B); assay: AM14 Fab titration by SEC; Target cycle; 3 M 2-8°C
[3] = molecular target: RSV A + RSV B bivalent composition (RSV subtype A; RSV subtype B); assay: AM14 Fab titration by SEC; Low-Fast cycle; 8 M 2-8°C
[4] = molecular target: RSV A + RSV B bivalent composition (RSV subtype A; RSV subtype B); assay: AM14 Fab titration by SEC; High-Slow 1 cycle; 1 M 40°C
[5] = molecular target: RSV A + RSV B bivalent composition (RSV subtype A; RSV subtype B); assay: AM14 Fab titration by SEC; Target cycle; 3 M 2-8°C (second value)
[6] = molecular target: RSV A + RSV B bivalent composition (RSV subtype A; RSV subtype B); assay: AM14 Fab titration by SEC; composition of Table 17; Pre-lyo Prep 1, T0
[7] = molecular target: RSV A + RSV B bivalent composition (RSV subtype A; RSV subtype B); assay: AM14 Fab titration by SEC; composition of Table 14; Annealing Temp Aggressive cycle
[8] = molecular target: RSV A + RSV B bivalent composition (RSV subtype A; RSV subtype B); assay: AM14 Fab titration by SEC; composition of Table 17; Pre-lyo Prep 1, T0 (second value)
[9] = molecular target: T1, RSV F protein of subtype A comprising a polypeptide of SEQ ID NO: 1 and a polypeptide of SEQ ID NO: 2 (RSV subtype A, UniProt P11209 137-513; P03420 26-109); assay: AM14 ELISA; F3 (pH 8, 0 mM NaCl, 9% sucrose); T0
T1 construct: Stabilized prefusion F trimer made of three F2-F1 heterodimers; Produced recombinantly in CHO cells; also called RSV A; RSVA
T1 chain 1: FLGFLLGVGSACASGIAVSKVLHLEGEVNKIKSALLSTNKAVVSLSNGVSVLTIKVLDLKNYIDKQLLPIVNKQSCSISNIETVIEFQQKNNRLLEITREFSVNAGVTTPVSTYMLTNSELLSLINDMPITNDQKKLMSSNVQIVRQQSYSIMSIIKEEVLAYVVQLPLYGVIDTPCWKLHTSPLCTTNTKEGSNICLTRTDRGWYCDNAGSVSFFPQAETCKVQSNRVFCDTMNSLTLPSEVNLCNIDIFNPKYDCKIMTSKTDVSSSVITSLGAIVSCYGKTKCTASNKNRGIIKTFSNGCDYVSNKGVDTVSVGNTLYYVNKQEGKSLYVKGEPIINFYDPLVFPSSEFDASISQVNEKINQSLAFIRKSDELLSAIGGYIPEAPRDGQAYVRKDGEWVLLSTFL
T1 chain 2: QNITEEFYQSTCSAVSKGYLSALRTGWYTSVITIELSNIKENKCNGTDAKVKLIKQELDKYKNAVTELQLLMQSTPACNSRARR

[10] = molecular target: T1, RSV F protein of subtype A comprising a …; assay: AM14 ELISA; F12 (pH 8, 100 mM NaCl, 9.0% sucrose); T0
[11] = molecular target: T1, RSV F protein of subtype A comprising a …; assay: AM14 ELISA; F16 (pH 6, 0 mM NaCl, 0% sucrose); 1 wk 25°C
[12] = molecular target: T1, RSV F protein of subtype A comprising a …; assay: AM14 ELISA; F4 (pH 6, 50 mM NaCl, 4.5% sucrose); 2 wk 5°C
[13] = molecular target: T1, RSV F protein of subtype A comprising a …; assay: AM14 ELISA; F9 (pH 8, 50 mM NaCl, 4.5% sucrose); 1 wk 5°C
[14] = molecular target: T1, RSV F protein of subtype A comprising a …; assay: AM14 ELISA; F11 (pH 7, 50 mM NaCl, 9.0% sucrose); 2 wk 5°C
[15] = molecular target: T1, RSV F protein of subtype A comprising a …; assay: AM14 ELISA; F4 (pH 6, 50 mM NaCl, 4.5% sucrose); 1 wk 25°C
[16] = molecular target: T1, RSV F protein of subtype A comprising a …; assay: AM14 ELISA; F10 (pH 7, 50 mM NaCl, 4.5% sucrose); 1 wk 25°C
[17] = molecular target: T1, RSV F protein of subtype A comprising a …; assay: AM14 ELISA; F17 (pH 7, 50 mM NaCl, 4.5% trehalose); 2 wk 5°C
[18] = molecular target: T1, RSV F protein of subtype A comprising a …; assay: AM14 ELISA; F17 (pH 7, 50 mM NaCl, 4.5% trehalose); 1 wk 25°C

Work on AM14 Fab yielded a Prefusion Content (%) [1] of 64%, a Prefusion Content (%) [2] of 69% and a Prefusion Content (%) [3] of 73%. For the same molecule, the Prefusion Content (%) [4] was 51%, the Prefusion Content (%) [5] was 70% and the Prefusion Content (%) [6] was 85%. It also gave a Prefusion Content (%) [7] of 70% and a Prefusion Content (%) [8] of 84%.

B1: AM14 (trimeric prefusion specific antibody of the AM14 ELISA) (antibody, V domains shown)
VH: EVQLVESGGGVVQPGRSLRLSCAASGFSFSHYAMHWVRQAPGKGLEWVAVISYDGENTYYADSVKGRFSISRDNSKNTVSLQMNSLRPEDTALYYCARDRIVDDYYYYGMDVWGQGATVTVSS
VL: DIQMTQSPSSLSASVGDRVTITCQASQDIKKYLNWYHQKPGKVPELLMHDASNLETGVPSRFSGRGSGTDFTLTISSLQPEDIGTYYCQQYDNLPPLTFGGGTKVEIKR
notes: Antibody as used in the AM14 ELISA, detected with an HRP-labeled secondary antibody
B1 was tested, and the “AM14 prefusion content (%), relative to standard” value [9] was 95%, the “AM14 prefusion content (%), relative to standard” value [10] was 100% and the “AM14 prefusion content (%), relative to standard” value [11] was 87%. The “AM14 prefusion content (%), relative to standard” value [12] was 62%, the “AM14 prefusion content (%), relative to standard” value [13] was 94% and the “AM14 prefusion content (%), relative to standard” value [14] was 90%. The “AM14 prefusion content (%), relative to standard” value [15] was 59%, the “AM14 prefusion content (%), relative to standard” value [16] was 82% and the “AM14 prefusion content (%), relative to standard” value [17] was 64%. The “AM14 prefusion content (%), relative to standard” value [18] was 105%.
